# Measurements taken from patent US20080057063A1 (published 2008).
# Where two headings read alike, the source gives them in different places.
# Key:
# [1] = target: T1, human αVβ6 integrin on cells (human, UniProt P06756 31-1048; P18564 22-788); assay: cell-based or functional assay
# [2] = target: T2, α4β1 integrin (on J6.77 cells) (UniProt P13612 34-1032; P05556 21-798, limits assumed); assay: cell-based or functional assay
# [3] = target: T3, α5β1 integrin (on K562 cells) (UniProt P08648 42-1049; P05556 21-798, limits assumed); assay: cell-based or functional assay
# [4] = target: T1, human αVβ6 integrin on cells; assay: FACS, 293T-αVβ6 cells, antibody at 5 ug/ml
# [5] = target: T1, human αVβ6 integrin on cells; assay: FACS, 293T-αVβ6 cells, antibody at 20 ug/ml
# [6] = target: T1, human αVβ6 integrin on cells; assay: FACS, 293T-αVβ6 cells, antibody at 1.25 ug/ml
# [7] = target: T1, human αVβ6 integrin on cells; assay: FACS titration on K562 cells expressing human αVβ6 (as Example 18)
# [8] = target: T1, human αVβ6 integrin on cells; assay: FACS titration on K562 cells expressing human αVβ6 (as Example 18); 95% CI ±15.9 pM
# [9] = target: T4, human αV on parental A375M cells, which express αVβ3 and αVβ5, but not αVβ6 (human, UniProt P06756 31-1048); assay: cell-based or functional assay
# [10] = target: T2, α4β1 integrin (on J6.77 cells); assay: cell-based or functional assay; remark: listed apart in the source
# [11] = target: T3, α5β1 integrin (on K562 cells); assay: cell-based or functional assay; remark: listed apart in the source
# [12] = target: T4, human αV on parental A375M cells, which …; assay: FACS, parental A375M cells (αVβ3, αVβ5)
# [13] = target: T5, mouse αV (HEK-293 cells transfected with mouse αV alone) (mouse, UniProt P43406 31-1044); assay: FACS, HEK-293 transfected with mouse αV
# T5 construct: whole, on cells; Single chain transfected into HEK-293 cells; also called Mouse alphaV
# [14] = target: T1, human αVβ6 integrin on cells; assay: cell-based or functional assay; remark: listed apart in the source
# [15] = target: T1, human αVβ6 integrin on cells; assay: cell-based or functional assay; remark: listed apart in the source
# cynomolgus αVβ6 on cells = target: T6, cynomolgus αVβ6 on cells (cynomolgus, UniProt A0A2K5WCD3 31-1048; A0A2K5TZ36 22-787); assay: FACS, HEK-293 transfected with cynomolgus αV and β6
# T6 construct: whole, on cells; also called macaque αVβ6; Mac AVB6
# [16] = target: T1, human αVβ6 integrin on cells; assay: FMAT, HEK 293 cells overexpressing αVβ6, supernatant
# [17] = target: T1, human αVβ6 integrin on cells; assay: FACS titration on K562 cells expressing human αVβ6; 95% CI ±22.7 pM
# soluble αVβ6 = target: T7, soluble αVβ6 (human, UniProt P06756 31-992; P18564 22-709); assay: Biacore, mAb captured on anti-human IgG, soluble αVβ6 injected, 1:1 fit
# T7 construct: extracellular domain; also called soluble αVβ6 protein; soluble antigen
# T3 sequence (P08648 42-1049 limits assumed, chain 1 of 2): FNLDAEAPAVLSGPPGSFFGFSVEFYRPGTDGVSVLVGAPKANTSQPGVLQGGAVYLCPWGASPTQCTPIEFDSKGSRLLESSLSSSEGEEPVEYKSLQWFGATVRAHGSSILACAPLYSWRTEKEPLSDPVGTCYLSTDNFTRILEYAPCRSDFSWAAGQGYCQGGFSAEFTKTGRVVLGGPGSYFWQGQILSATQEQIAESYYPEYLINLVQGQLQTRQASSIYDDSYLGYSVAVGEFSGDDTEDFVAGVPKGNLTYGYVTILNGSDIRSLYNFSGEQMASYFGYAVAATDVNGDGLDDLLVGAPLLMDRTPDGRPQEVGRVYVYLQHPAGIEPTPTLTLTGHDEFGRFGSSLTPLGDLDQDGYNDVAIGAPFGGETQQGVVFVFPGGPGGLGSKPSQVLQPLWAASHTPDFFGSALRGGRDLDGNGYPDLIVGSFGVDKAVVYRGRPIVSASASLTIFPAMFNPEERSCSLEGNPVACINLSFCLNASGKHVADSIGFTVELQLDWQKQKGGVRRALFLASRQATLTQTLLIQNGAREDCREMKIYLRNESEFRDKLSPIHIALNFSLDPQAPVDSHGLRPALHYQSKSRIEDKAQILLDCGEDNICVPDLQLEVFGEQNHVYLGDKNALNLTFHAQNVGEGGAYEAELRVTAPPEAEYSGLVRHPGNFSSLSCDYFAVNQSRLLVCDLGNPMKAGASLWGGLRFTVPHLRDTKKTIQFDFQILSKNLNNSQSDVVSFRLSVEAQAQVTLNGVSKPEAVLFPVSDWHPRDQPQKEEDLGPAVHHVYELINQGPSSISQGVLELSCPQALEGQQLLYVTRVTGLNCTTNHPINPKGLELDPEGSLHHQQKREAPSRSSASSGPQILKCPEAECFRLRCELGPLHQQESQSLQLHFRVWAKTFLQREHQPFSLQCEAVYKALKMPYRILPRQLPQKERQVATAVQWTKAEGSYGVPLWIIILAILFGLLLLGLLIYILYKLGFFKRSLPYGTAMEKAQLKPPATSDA
# T3 sequence (P05556 21-798 limits assumed, chain 2 of 2): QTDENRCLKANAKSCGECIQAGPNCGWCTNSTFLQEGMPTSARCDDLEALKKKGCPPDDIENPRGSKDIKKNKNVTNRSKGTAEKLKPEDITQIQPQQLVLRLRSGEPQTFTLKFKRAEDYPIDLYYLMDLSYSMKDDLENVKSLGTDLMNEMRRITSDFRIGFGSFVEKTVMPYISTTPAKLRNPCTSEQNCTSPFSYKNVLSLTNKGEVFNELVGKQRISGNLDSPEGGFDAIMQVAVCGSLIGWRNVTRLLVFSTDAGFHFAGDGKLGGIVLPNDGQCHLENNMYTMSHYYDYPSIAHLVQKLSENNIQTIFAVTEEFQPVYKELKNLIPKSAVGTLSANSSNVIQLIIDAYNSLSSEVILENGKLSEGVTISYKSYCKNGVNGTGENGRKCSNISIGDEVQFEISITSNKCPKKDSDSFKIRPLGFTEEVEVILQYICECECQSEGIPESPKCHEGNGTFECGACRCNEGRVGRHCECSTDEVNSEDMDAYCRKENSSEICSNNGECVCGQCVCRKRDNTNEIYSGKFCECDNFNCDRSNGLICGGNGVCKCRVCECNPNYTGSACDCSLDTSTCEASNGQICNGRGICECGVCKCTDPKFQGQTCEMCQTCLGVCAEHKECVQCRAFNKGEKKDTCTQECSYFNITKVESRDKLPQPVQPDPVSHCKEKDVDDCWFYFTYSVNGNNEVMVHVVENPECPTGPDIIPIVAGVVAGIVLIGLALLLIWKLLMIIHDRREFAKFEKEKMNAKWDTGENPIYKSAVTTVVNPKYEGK
# T1 sequence (P06756 31-1048, chain 1 of 2): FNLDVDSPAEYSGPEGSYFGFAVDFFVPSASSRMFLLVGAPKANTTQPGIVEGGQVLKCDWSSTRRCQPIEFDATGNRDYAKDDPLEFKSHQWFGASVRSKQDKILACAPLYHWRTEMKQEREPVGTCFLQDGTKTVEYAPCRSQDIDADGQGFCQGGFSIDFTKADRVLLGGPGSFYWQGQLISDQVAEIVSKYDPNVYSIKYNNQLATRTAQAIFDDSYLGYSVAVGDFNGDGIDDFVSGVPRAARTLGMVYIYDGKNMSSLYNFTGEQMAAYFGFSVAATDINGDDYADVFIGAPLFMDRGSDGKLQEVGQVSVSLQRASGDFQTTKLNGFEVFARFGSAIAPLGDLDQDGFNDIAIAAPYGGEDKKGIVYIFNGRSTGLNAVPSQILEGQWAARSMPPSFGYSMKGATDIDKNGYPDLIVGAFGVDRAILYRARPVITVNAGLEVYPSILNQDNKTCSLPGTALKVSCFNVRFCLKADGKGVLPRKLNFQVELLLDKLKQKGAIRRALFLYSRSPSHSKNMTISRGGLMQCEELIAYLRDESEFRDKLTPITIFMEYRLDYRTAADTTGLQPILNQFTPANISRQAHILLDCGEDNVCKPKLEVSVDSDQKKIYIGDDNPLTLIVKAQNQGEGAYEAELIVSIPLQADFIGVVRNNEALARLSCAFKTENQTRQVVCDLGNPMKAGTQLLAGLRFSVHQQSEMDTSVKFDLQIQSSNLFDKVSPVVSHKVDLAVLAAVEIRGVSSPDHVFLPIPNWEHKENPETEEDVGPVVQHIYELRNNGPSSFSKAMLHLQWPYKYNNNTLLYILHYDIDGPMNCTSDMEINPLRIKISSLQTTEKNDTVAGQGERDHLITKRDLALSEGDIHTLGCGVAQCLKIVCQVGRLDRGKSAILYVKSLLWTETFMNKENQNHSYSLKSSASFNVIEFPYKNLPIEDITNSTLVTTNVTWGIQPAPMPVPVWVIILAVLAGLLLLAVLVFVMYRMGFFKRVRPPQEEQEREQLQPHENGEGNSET
# T1 sequence (P18564 22-788, chain 2 of 2): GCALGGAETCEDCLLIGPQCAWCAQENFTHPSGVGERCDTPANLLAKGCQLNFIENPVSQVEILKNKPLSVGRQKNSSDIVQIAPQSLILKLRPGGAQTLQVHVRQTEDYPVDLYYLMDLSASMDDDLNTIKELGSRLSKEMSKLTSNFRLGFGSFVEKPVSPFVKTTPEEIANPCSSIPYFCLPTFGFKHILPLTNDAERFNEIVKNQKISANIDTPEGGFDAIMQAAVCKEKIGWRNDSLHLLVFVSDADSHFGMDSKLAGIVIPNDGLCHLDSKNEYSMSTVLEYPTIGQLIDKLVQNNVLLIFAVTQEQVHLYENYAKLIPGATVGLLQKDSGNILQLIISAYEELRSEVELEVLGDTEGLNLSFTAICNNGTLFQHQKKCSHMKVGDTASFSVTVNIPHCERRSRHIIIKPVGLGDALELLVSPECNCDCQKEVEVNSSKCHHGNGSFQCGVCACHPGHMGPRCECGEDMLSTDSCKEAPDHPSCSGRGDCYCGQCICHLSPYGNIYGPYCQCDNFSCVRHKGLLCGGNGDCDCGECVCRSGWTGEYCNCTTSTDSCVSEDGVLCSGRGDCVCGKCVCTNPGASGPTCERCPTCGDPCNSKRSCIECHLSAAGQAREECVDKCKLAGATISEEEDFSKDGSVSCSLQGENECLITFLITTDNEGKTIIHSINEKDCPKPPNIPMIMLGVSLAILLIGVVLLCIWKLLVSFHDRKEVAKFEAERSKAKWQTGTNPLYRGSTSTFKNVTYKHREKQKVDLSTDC
# T4 sequence (P06756 31-1048 A375M): as the sequence (P06756 31-1048, chain 1 of 2) above, with A345M counted along it
# T5 sequence (P43406 31-1044): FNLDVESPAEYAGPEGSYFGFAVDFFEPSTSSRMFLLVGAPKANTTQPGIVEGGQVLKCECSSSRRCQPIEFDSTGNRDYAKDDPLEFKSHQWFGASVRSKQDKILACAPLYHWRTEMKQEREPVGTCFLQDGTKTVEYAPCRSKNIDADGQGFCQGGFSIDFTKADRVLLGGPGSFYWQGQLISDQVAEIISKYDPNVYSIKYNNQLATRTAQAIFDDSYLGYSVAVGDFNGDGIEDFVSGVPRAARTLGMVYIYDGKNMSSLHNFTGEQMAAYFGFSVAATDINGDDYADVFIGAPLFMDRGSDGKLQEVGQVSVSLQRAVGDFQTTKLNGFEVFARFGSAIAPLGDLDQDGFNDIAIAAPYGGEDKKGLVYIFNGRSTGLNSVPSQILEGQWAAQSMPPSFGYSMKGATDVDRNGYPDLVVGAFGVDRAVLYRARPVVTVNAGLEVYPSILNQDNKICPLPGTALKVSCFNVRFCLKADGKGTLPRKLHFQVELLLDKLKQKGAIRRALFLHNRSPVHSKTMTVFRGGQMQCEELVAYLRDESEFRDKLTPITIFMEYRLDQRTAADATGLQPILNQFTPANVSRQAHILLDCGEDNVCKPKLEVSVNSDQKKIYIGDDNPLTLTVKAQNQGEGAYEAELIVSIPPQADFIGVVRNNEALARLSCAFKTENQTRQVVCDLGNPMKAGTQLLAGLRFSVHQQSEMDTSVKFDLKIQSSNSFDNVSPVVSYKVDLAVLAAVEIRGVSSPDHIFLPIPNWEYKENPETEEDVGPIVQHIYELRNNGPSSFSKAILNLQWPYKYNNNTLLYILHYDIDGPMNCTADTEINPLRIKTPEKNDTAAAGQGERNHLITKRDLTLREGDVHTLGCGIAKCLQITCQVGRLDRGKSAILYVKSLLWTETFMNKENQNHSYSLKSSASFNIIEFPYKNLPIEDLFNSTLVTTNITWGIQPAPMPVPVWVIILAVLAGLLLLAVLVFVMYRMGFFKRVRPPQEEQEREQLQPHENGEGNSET
"IC50, n = 1 (HT29 adhesion to TGFβLAP) [1]","IC50, n = 2 (HT29 adhesion to TGFβLAP) [1]","IC50, n = 3 (HT29 adhesion to TGFβLAP) [1]","Percent Inhibition (J6.77 adhesion to CS-1 peptide of fibronectin, 5 ug/ml) [2]",% Inhibition (K562 adhesion to fibronectin) [3],Geometric Mean Shift [4],Geometric Mean Shift [5],Geometric Mean Shift [6],"Percent Inhibition (J6.77 adhesion to CS-1 peptide of fibronectin, 5 ug/ml) [10]","Percent Inhibition (K562 adhesion to FN9-10 peptide of fibronectin, 5 µg/ml) [11]",Binder,also measured
0.013 µg/mL,0.013 µg/mL,0.039 µg/mL,-2%,6%,6840,7240,4890,–,–,"sc 264 RAD (antibody, V domains shown, Variable domains only) VH: QVQLQESGPGLVKPSQTLSLTCTVSGGSISSGGYYWSWIRQHPGKGLEWIGYIYYSGRTYNNPSLKSRVTISVDTSKNQFSLKLSSVTAADTAVYYCARVATGRADYHFYAMDVWGQGTTVTVSS VL: SYELTQPSSVSVSPGQTARITCSGDVLAKKSARWFHQKPGQAPVLVIYKDSERPSGIPERFSGSSSGTTVTLTISGAQVEDEAAYYCYSAADNNLVFGGGTKLTVL",Kd [7]: < 0.05 nM; Kd [8]: 0.0463 nM
–,–,–,–,–,–,–,–,-15%,-12%,"sc 133 (antibody, V domains shown) VH: QVQLVQSGAEVKKPGASVKVSCKASGYTFTGYYMHWVRQAPGQGLEWMGWINPKSGDTNYAQKFQGRVTLTRDTSTSTAYMELSRLRSDDTAVYYCARRLDVWGQGTTVTVSS VL: QSVLTQPPSVSAAPGQKVTISCSGSSSNIGNNYVSWYQQLPGTAPKLLIYDNNKRPSGIPDRFSGSKSGTSATLGITGLQTGDEADYYCGTWNSSLSAGYVFGTGTKVTV","Percent Inhibition (A375M adhesion to osteopontin peptide, 5 µg/ml) [9]: 3%; % Cells Shifted [12]: 24%; GeoMean [12]: 1.79; percent of cells shifted [13]: 4%"
0.125 µg/mL,0.157 µg/mL,0.064 µg/mL,2%,-5%,–,–,–,-10%,5%,"sc 188 (antibody, V domains shown) VH: QVQLQESGPGLVKPSQTLSLTCTVSGGSISSGVYYWTWIRQHPGNGLEWIGYIYYSGSTSYNPSLKSRVTISVDTSKKQFSLNLTSVTAADTAVYYCAREGPLRGDYYYGLDVWGQGTTVTVSS VL: EIVLTQSPGTLSLSPGERATLSCRAGQTISSRYLAWYQQKPGQAPRPLIYGASSRATGIPDRFSGSGSGTDFTLTISRLEPEDFAVYYCQQYGSSPRTFGQGTKVEIK","Assay 1 % Inhibition (HT29 adhesion to TGFβLAP) [14]: 99%; Assay 2 % Inhibition (HT29 adhesion to TGFβLAP) [14]: 103%; Average % Inhibition (HT29 adhesion to TGFβLAP) [14]: 101%; Estimated IC50, n = 1 (HT29 adhesion to TGFβLAP) [15]: 0.041 µg/mL; Estimated IC50, n = 2 (HT29 adhesion to TGFβLAP) [15]: 0.026 µg/mL; GeoMean (cynomolgus αVβ6 on cells): 23.9; FMAT Count [16]: 127; FMAT FL1 [16]: 628; FMAT FL1 × Count [16]: 79800; Kd [17]: 0.0519 nM; Kd (soluble αVβ6): 21.2 nM"
0.022 µg/mL,0.024 µg/mL,0.067 µg/mL,-6%,-8%,6820,6760,4530,–,–,"sc 188 SDM (antibody, V domains shown, Variable domains only) VH: QVQLQESGPGLVKPSQTLSLTCTVSGGSISSGVYYWTWIRQHPGNGLEWIGYIYYSGSTSYNPSLKSRVTISVDTSKKQFSLKLTSVTAADTAVYYCAREGPLRGDYYYGLDVWGQGTTVTVSS VL: EIVLTQSPGTLSLSPGERATLSCRAGQTISSRYLAWYQQKPGQAPRPLIYGASSRATGIPDRFSGSGSGTDFTLTISRLEPEDFAVYYCQQYGSSPRTFGQGTKVEIK",–
